From doi:10.1101/750265

Target: dominant negative RACB-T20N, split-YFP fusion for BiFC (barley (Hordeum vulgare))
Assay: split reporter

BiFC signal relative to that with CA RACB: < 10%
Substance: RIPb, full length, split-YFP fusion for BiFC (natural protein)
